# PMC7343156, “Purification and characterization of a novel medium-chain ribitol dehydrogenase from a lichen-associated bacterium Sphingomonas sp” (PLoS ONE, 2020)
# B1: SpRDH (Sphingomonas sp. PAMC 26621) (protein)
# chain: MTQKTMTAVVCHGPKDYRVEEIAHPTAGALEFVIRVTACGICASDCKCWSGAKMFWGDDPWVKAPVVPGHEFFGVVDELGEGAGEHFGVAVGDRVIAEQIVPCERCRYCRSGQYWMCEVHNIFGFQRLVADGGMAQFMRLPRTSRVHLIPAEIPDDDAVIIEPLACALHTVRRGTIGFEDVVVIAGAGPIGLMMVQAARLQTPRKLVVIDMVPERLALATTFGADVVINPATDDALAIVHGLTDGYGCDVYIEATGSPAGVVQGLNLIRRLGRFVEFSVFGSDTTVDWSIIGDRKELDVRGAHLGPYCYPIAIDLLSRGLITSNGIVTHRFPLIQWAEAIAVADSLESIKVVLSPST
# notes: native enzyme purified from Sphingomonas sp; PAMC 26621 grown on D-ribitol; untagged; identified by MALDI-TOF/TOF
# Assays:
# purified protein [1] = substrate: OC[C@@H](O)[C@@H](O)[C@@H](O)CO; assay: purified protein; assay type: biochemical, Sphingomonas sp. PAMC 26621; settings: 10-160 mM D-ribitol, NAD+ 0.05-1 mM, 100 mM potassium phosphate pH 8.0, 25°C, no added metal
# purified protein [2] = substrate: NC(=O)c1ccc[n+]([C@@H]2O[C@H](COP(=O)(O)OP(=O)(O)OC[C@H]3O[C@@H](n4cnc5c(N)ncnc54)[C@H](O)[C@@H]3O)[C@@H](O)[C@H]2O)c1; assay: purified protein; assay type: biochemical, Sphingomonas sp. PAMC 26621; settings: 10-160 mM D-ribitol, NAD+ 0.05-1 mM, 100 mM potassium phosphate pH 8.0, 25°C, no added metal, varied: cofactor
protein,measurement,setting,value
B1,Km,purified protein [1],8.5 ± 1.2 mM
same,kcat,purified protein [1],29 ± 0.7 s⁻¹
same,kcat/Km,purified protein [1],3500 M⁻¹ s⁻¹
same,Km,purified protein [2],0.3 ± 0.02 mM
same,kcat,purified protein [2],29 ± 0.7 s⁻¹
